# Assay: yeast display, Sf9 membrane polyspecificity reagent, FACS + sequencing; frameworks hold sequencing errors
# How it was run: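 Galactose induction of a Saccharomyces cerevisiae BJ5465 synthetic nanobody display library ran 36–48 hours. The cells were then stained for 1 hour at 4 °C with 10% biotinylated, detergent-solubilized Sf9 membrane reagent, pulled down on streptavidin microbeads and FACS-sorted into low and high (top ~1%) gates on expression and reagent-binding fluorescence. Labels for polyreactivity follow the gate of origin.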
row,Sequence,polyreactivity (PSR sort gate)
1,QVQLVESGGGLVQAGGILRLSCAASGSTFYGYAMGWYRQAPGKERELVAAITRSGGSTYYADSVKGRFTISRDNAKNTVYLQMNSLKPEDTEVYYCNKYGYKGGVGYDYWGQGTQVTVSS,high polyreactivity
2,QVQLVESGGGLVQAGGSLRLSCAASGSIFYGNAMGGYRQAPGKERELVASITYSGGNTQYADSVKGRFTISRDNAKNTVYLQMNSLKPEVTAVYYCNARRYGVDTGWRQGLDSWGQGTQVTVSS,low polyreactivity
3,QVQLQESGGGLVQAGGSLRLSCAASGTITVLYKMGWFRLAPGKEREFVASINYGTSTYYADSVKGRFTVSRDSAKNTVYLQMNSLKPEDTAVYYCAAAYRWQDVYRYWGQGTQVTVSS,low polyreactivity
4,QVQLVESGGGLVQAGGSLRLTCAASGRIFGSYAMGWYRQAPGKERELVAAITRRGGSTYYADSVKGRFTISRDNAKNTVYLQMNSLKPEDTAVYYCAPERTSAYDYWGQGTQVTVSS,high polyreactivity
5,QVQLVESGGGLVQAGGSLRLSCAASGSIFYHYAMGWYRQAPGKERELVAAITITGGSTYYADSVKGRFTISRDNAKNTVYLQMNSLKPEDTAVYYCARKWYVHYNYWGQGTQVTVSS,high polyreactivity
6,QVQLVESGGGLVQAGGSLRLSCAASGRIYLTNAMGWYRQAPGKERELVAAITSGGSTYYADSVKGRFTISRDNAKNTVYLQMNSLKPEDTAVYYCNADTDRYWPYEYDYWGQGTQVTVSS,low polyreactivity
7,QVQHVESVGGLVQAGGSLRLSCAASGSTFARYVMGWYRQAPGKEWELVAVISRSGGSTYYADSVKGRFTISRDNAKNTVYLQMNSLKPEDTAVYYCNARSSNYWWYYYWGQGTQVTVSS,high polyreactivity
8,QVQLVESGGGLVQAGGSLRLSCAASGSIFWYNSMGWYRQAPGKERELVAAISYRGGRTYYADSVKGRFTISRDNAKNTVYLQMNSLKPEDTAVYYCNAPRYLGGGQDALGDYWGQGTQVTVSS,high polyreactivity
9,QVQLVESGGGLVNAGGSLRLSCAASGRITGDNAMVWYRQAPGKVRELVAAISTSRRTYYADSVKGRFTISRDNAKNTVYLQMNSLKPEDTAVYYCNAFGSNGGAMDYWGQGTQLTVSS,high polyreactivity
10,QVQLVESGGGLVQAGGSLRLSCAASGRTIGTYAMGWYRQAPGTERELVAAIRSNAGSTYYADSVKGRFTISRDNGKNTVYLQMNSLKPEDTAVYYCAKSYRSSRRYNYWGQGTQVTVSS,high polyreactivity
11,QVQLVESGGGLVQAGGSLRLSCAASGRTIWTYVMGWYRQAPGKERELVAAISRSGSSTYYADSVKGRFTISRDNAKNTVYLQMNSLKPEDTAVYYCAASSPWEQSHDQFYYWGQGTQVTVTS,low polyreactivity
12,QVQLVESGGGLVQAGGSLRLSCAASGGIIGAYVMGWYIQAAGKERELVAAISSGGDTNYADTVKGRFTISRDNAKNTVYIQMNSQKPEDTAVSYCAKDPYWTELYPSGDYWGQGTQVTVSS,low polyreactivity
13,QVQLVDSGGGLVQAGGRLRLSCAPSGSIIIDNAMGWYRQAPGKERELVAAISSSGGSTHYADSVKGRFTISRDNAKNTVYLQMNSLKPEDTAVYYCAAKRGWRGGYYWGQGTQVTVSS,high polyreactivity
14,QVQLVESGGGLVQAGGSLRLSCAASGSTLYTYAMGWYRQAPGKERELVAAISYTGGRTYYADSVKGRFTISRDNAKNTVYLQMNSLKPEDTAVYYCAARFKSVGYDYWGQGTQVTVSS,high polyreactivity
15,QVKLVESGGGLVQAGGSLRLSCAASGGNFGNYAMGWYRQAPWKERELVATIRYRGGSTYYADSVKGRFTISRDNAKITVYLQMNSLIPEDTAVFYCAARRSHPQDPRFRYGYWGQATQVTVSS,high polyreactivity
16,QVQLVESGGGLVQAGGSLRLSCAASGRIFYAYAMGWYRQAPGKERELVARISYSGGNTYYADSVKGRFTISRDNAKNTVYLQMNSQKPEDTAVYYCNTDYRARFGYWGQGTQVTVSS,high polyreactivity
17,QVQLVESGGGLVQAGGSLRLSCAASGIIFTGNAMGWYRQAPGKERELVAGITGSGGNTYYADSVKGRFTISRDNAKNTVYLQMNSLKPEDTAVYYCAARRHIFLLIIWSGRVDYWGQGTQVTVSS,low polyreactivity
18,QVQLVESGGGLVQAGGSLRLSCAASGFIFHYNAMGWYRPAPGKERELVAAITSGDSTDYADSVKGRFTISRDNAKNTVYLQMNSLKREDTAVYYCAAAEGYLSKYENDYWGQGTQVTVSS,low polyreactivity
19,QVQLVESGGGLVQAGGSLRLSCAASGLTFANYAIGWYRQAPGKERELVAAISTWSGGSTYYADSVKGRFTISRDNAKNTVYLQMNSLKPEDTAVYYCAARRYSRGRLPYDYWGQGTQVTVSS,high polyreactivity
20,QVQLVESGGGLVQAGGSLRLSCADSGSTPVYAMGWYIQAPGKERELVAAIRRRASSTYYADSVKGRLTISRDNAKNTVYLQMNSLKPEDTAVYYCAVGRLNGVLLGYWGQGTQVTVSS,high polyreactivity
21,QVQLEESGGGVVQAGGSLSLSCAASVSTFIFNTMGWYRQATGKERELVASITGDGRTNYADSVKGRFTISRDNAKNTVYLQMNSLKPEDTAVYDCAADGYDQYPLWAPPGDYWGQGTQVTVSS,low polyreactivity

row,Sequence,polyreactivity (PSR sort gate)
1,QVQLVESVGGLVQAGGSLRLSCAASGSTFRYNAMGWYRQAPGKERELVATISSDGITYYADSVNGRFTISRDNAKNTVYLQMNRLKPEDTAVYYCAASYAGGFDYWGQGTQVTVSS,high polyreactivity
2,QVQLVESGGGLFQAGGILRLTCAASGLTIYDYAMRWSRQAPAKERELVAANTRSAGSTYYADSVKGRFTISRDYAKYTVYLLMNSLKPEDTAVYYCAARGKIRYQGYYGSDQYYYWGQGTQVSVSS,high polyreactivity
3,QVQLVESGGGLVQAGGSLRLSCAASGSIFRAYAMGWYRQAPGKERELVAGITKSGGSTYYADSVKGRFTISRDNAKNTVYLQMNILKPEDTAVYYCAAYRSRTYGYWGQGTQVTVSS,high polyreactivity
4,QDQLVESGGGLVQAGGSLRLSCAASGSTFRRYAIGWYRQAPGKERELVAAITSGGRTNYADSVKGRFTISRDNAKNTVYLQMNSLKPEDTAVYYCNAKAYKLGQSYWGYDYWGQGTQVTVSS,high polyreactivity
5,QVQLVESGGGLVQAGGSLRLSCAASGFTFFPNAMGWYRQAPGKERELVADITDGGSTNYADSVKGRFTISRDNAKNTVYLQLNSLKPEDTADYYCNADWYGWFGGYEYWGQGTQVTVSS,high polyreactivity
6,QVQLVESGGGLVHAGGFLRLSCAASGRIFRWNAMGWYRQAPGKERELVAAISWNGGRTYYADSVKGRFTISRDNAKNRVYFQMNSLKPEDTAVYYCAAPHSVPDLHSGDYWGQGTQVTVSS,low polyreactivity
7,QVQLVESGGGLVQAGGSLRLSCAASGSIFYWNAMGWYRQAPGKEREFVADISQSGDSTYYADSVKGRFTISRDNAKNTVYLQMNSLKQEDTAVYYCAAQFLSYAWDYDYWGQGTQVTVSS,low polyreactivity
8,QVQLVESGGGLVQAGGSLRLSCAASGFIFGYYAMGWYRQAPGKERELVAAISKSGGRTRYADSVKGRFTISRDNAKNTVYLQMNSLKPEDTAVYYCATYDPARSTQGYDYWGQGTQVTVSS,high polyreactivity
9,QVQLVESGGGLFQAGGSLRLSCAASGSIFDSYAMGWYRQAPGKDREVVAAISSDCGSTYYADSVKGRFTISRDNAKNTVYLQMNSLKPEDTAVYFCAVEDYSSPYDFDSWGQGTQVTVSS,low polyreactivity
10,QVQLVESGGGLVQAGGSLRLSCAASGSIFKQYVMGWYRQAPGKERELVAAISRGGNTYYADSVKGRFTISRDNAKNTVYLQMNSLKPEDTAVYYCAAVYGGRAVPYYSWGQGTQVTVSS,high polyreactivity
11,QVHLVESGGGLDQAGGSLRLSCAASGRTFKSYTMGWYRQAPGKEREFVAAISSRGGNTYYADSVKGRFTISRDNAKNTVYLQMNSLKPEDTAVYYCAAESSYWSFPTYDYWGQGTQVTVSS,high polyreactivity
12,QVQLQESGGGLVQAGGSLRQSCAASGYIFPYYSMGWYRQAPGKERGLVACIAAGTTTNYADSVKGRFTISRDNAKNTVYLQMISLKPEDAAVYYCAALNAFNTGHWYWGQGTQVTVSS,low polyreactivity
13,QVQLVESGGGLVQAGGSLRLSCAASGRIFRYYAMGWYRQAPGKERELVAAITKNGGSTYYADSVKRRFTISRDNAKNTVYLQMNSLKPEDTAVYYCAAARLGNYDYWGQGTQVTVSS,high polyreactivity
14,QVQLVESGGGLVQAGGRLRLSCAASGSIFDLNAMGWYRQAPGKERELVAAISSGGGTYYADSVKGRFTISRDNAKNTVYLQMNSLKPEDTAVYYCNRVTRWTYNYWGQGTQVTVSS,high polyreactivity
15,QVQLVESGGGLVQAGGSLRLSCAASGRIFRYNAMGWYRQAPGKERELVAAISWGGGSTYYADSVKGRFTISRDNAKNTVYLQMNSLKPEDTAVYYCAVTSGSSFRMGYWGQGTQVTVSS,high polyreactivity
16,QVQLGESGGGLVQAGGSLRLSCAASGRTFYWYTMGWYRQAPGKESELVAAISTRGVRTYYADSVKGRFTISRDNAKNTVYLQMNSLKPADTAVYYCNNYVAYDYWGQGTQVTVSS,low polyreactivity
17,QVQLVESGGGLVQAGGSLRLSCAASGFTFGVYAMGWYRQAPGKERELVAAISRSSGRTYYADSVKGRFTISRDNAKNTVYLQMNSLKPVDTAVYYCAADLRYYGYYTRFRYYEMDYWGQGTQVTVSS,high polyreactivity
18,QVHLVESGGGLVQAAGSLRLSCAASGFIFYYYAMGWYRQAPGKERELVAAISRSGGRTYYADSVKGRFTISRDNAKNTVYLQMNSLKPEDTAVYYCAAPGYQTVGMGYWGQGTQVTVSS,high polyreactivity
19,QVQLVESGGGLVQAGGSLRLSCAASGSTFLGNAMGWYRQAPGKERELVATITGSSGSTYYADSVKGRFTISRDNAKNTVYLQMNSLKPEDTAVYYCAAQRRVVGRHGLSLIRYDYWGQGTQVTVSS,low polyreactivity
20,QVQLVESGGGLVQAGGSLRLSCAASGRTFFGYAMGWYRQAPGKERELVAAITSSGGRTYYADSVKGRFTISRDNAKNTVYLQMNSLKPEDTAVYYCNTVLSFRSVNIYRGRGDYWGQGSQVTVSS,high polyreactivity
